What all share (details): Homo sapiens
Compound in series [1]: CCCCCCCCCCCCCCCc1cccc(O)c1C(=O)O
Put plainly: Uncompetitive inhibition of recombinant N-terminal His6-tagged KAT8 (unknown origin) expressed in Escherichia Coli BL21 DE3 cells assessed as Vmax for acetyl coenzyme A at 80 uM.

Compound in series [2]: CCCCCCCCCCCCCCCc1cccc(O)c1C(=O)O
As to the kind of experiment: Uncompetitive inhibition of recombinant N-terminal His6-tagged KAT8 (unknown origin) expressed in Escherichia Coli BL21 DE3 cells assessed as Vmax for acetyl coenzyme A at 160 uM.

Compound in series [3]: CCCCCCCCCCCCCCCc1cccc(O)c1C(=O)O
As to the kind of experiment: Uncompetitive inhibition of recombinant N-terminal His6-tagged KAT8 (unknown origin) expressed in Escherichia Coli BL21 DE3 cells assessed as Vmax for acetyl coenzyme A at 240 uM.

Compound in series [4]: CCCCCCCCCCCCCCCc1cccc(O)c1C(=O)O
As to the kind of experiment: Uncompetitive inhibition of recombinant N-terminal His6-tagged KAT8 (unknown origin) expressed in Escherichia Coli BL21 DE3 cells assessed as Km for acetyl coenzyme A at 80 uM.

Compound in series [5]: CCCCCCCCCCCCCCCc1cccc(O)c1C(=O)O
As to the kind of experiment: Uncompetitive inhibition of recombinant N-terminal His6-tagged KAT8 (unknown origin) expressed in Escherichia Coli BL21 DE3 cells assessed as Km for acetyl coenzyme A at 160 uM.

Compound in series [6]: CCCCCCCCCCCCCCCc1cccc(O)c1C(=O)O
As to the kind of experiment: Uncompetitive inhibition of recombinant N-terminal His6-tagged KAT8 (unknown origin) expressed in Escherichia Coli BL21 DE3 cells assessed as Km for acetyl coenzyme A at 240 uM.

Compound in series [7]: CCCCCCCCCCCCCCCc1cccc(O)c1C(=O)O
As to the kind of experiment: Inhibition of recombinant N-terminal His6-tagged KAT8 (unknown origin) expressed in Escherichia Coli BL21 DE3 cells assessed as Vmax for histone H4 peptide at 80 uM.

Compound in series [8]: CCCCCCCCCCCCCCCc1cccc(O)c1C(=O)O
Put plainly: Inhibition of recombinant N-terminal His6-tagged KAT8 (unknown origin) expressed in Escherichia Coli BL21 DE3 cells assessed as Vmax for histone H4 peptide at 160 uM.

Compound in series [9]: CCCCCCCCCCCCCCCc1cccc(O)c1C(=O)O
Put plainly: Inhibition of recombinant N-terminal His6-tagged KAT8 (unknown origin) expressed in Escherichia Coli BL21 DE3 cells assessed as Vmax for histone H4 peptide at 240 uM.

B1: Histone acetyltransferase KAT8 (Homo sapiens), Q9H7Z6 (protein)
chain: MAAQGAAAAVAAGTSGVAGEGEPGPGENAAAEGTAPSPGRVSPPTPARGEPEVTVEIGETYLCRRPDSTWHSAEVIQSRVNDQEGREEFYVHYVGFNRRLDEWVDKNRLALTKTVKDAVQKNSEKYLSELAEQPERKITRNQKRKHDEINHVQKTYAEMDPTTAALEKEHEAITKVKYVDKIHIGNYEIDAWYFSPFPEDYGKQPKLWLCEYCLKYMKYEKSYRFHLGQCQWRQPPGKEIYRKSNISVYEVDGKDHKIYCQNLCLLAKLFLDHKTLYFDVEPFVFYILTEVDRQGAHIVGYFSKEKESPDGNNVACILTLPPYQRRGYGKFLIAFSYELSKLESTVGSPEKPLSDLGKLSYRSYWSWVLLEILRDFRGTLSIKDLSQMTSITQNDIISTLQSLNMVKYWKGQHVICVTPKLVEEHLKSAQYKKPPITVDSVCLKWAPPKHKQVKLSKK
As to B1, the Vmax is 12 pmol/min in series [1]; 9.2 pmol/min in series [2]; 6.1 pmol/min in series [3]; 12 pmol/min in series [7]; 12 pmol/min in series [8]; 12 pmol/min in series [9]. Further, the Km in [4] worked out at 2.4 µM; in series [5], 1.9 µM; in series [6], 1 µM.

In general, Vmax refers to the rate approached at saturating substrate. What is called Km is the concentration of substrate that gives half-maximal velocity.

The values above are taken from ChEMBL document CHEMBL3734689, “Enzyme kinetics and inhibition of histone acetyltransferase KAT8” (Eur J Med Chem, 2015).
